From patent US20140079717A1, “Compositions and Methods to Prevent Cell Transformation and Cancer Metastasis” (CORNELL UNIVERSITY, priority 2011, published 2014) come the findings set out here.

This assay in a line: In vitro liposome fractionation assay. Conditions: 5 μg protein, 15 minute incubation, centrifugation, SDS-PAGE. In kind it is binding. The method, then: FIG. 51. Recombinant tTG can associate with lipid vesicles lacking any protein content. Synthetic liposomes were prepared by extrusion and then equal amounts of this preparation were combined with either 5 μg recombinant tTG (tTG WT) or 5 μg bovine serum albumin (BSA). After a 15 minute incubation, the liposomes were pelleted by centrifugation, and the resulting supernatant (Sup) and liposome (Pellet) fractions were resolved by SDS-PAGE. The gel was then stained with Quick Blue to detect the proteins. A lane containing recombinant tTG (Rec. tTG WT) was included as a standard.
To obtain the results depicted in FIG. 51, the following procedures were used. In vitro liposome fractionation assays—Synthetic liposomes were prepared from a lipid mixture containing 35% phosphatidylethanolamine, 25% phosphatidylserine, 5% phosphatidylinositol, and 35% cholesterol re-suspended in TBSM buffer (20 mM Tris, pH 7.5, 150 mM NaCl, and 2 mM MgCl2). The lipids were extruded through an 8 micron filter, pelleted by centrifugation at 13,000 rpm for 15 minutes, and re-suspended in TBSM buffer. Equal amounts of the lipid preparation were then incubated with either recombinant wild-type tTG or BSA for 15 minutes, followed by centrifugation at 13,000 rpm for 10 minutes at room temperature. […]

B1: tTG WT: purified recombinant wild-type tissue transglutaminase (protein, UniProt P21980 2-687, looked up)
Protein-glutamine …: AEELVLERCDLELETNGRDHHTADLCREKLVVRRGQPFWLTLHFEGRNYEASVDSLTFSVVTGPAPSQEAGTKARFPLRDAVEEGDWTATVVDQQDCTLSLQLTTPANAPIGLYRLSLEASTGYQGSSFVLGHFILLFNAWCPADAVYLDSEEERQEYVLTQQGFIYQGSAKFIKNIPWNFGQFEDGILDICLILLDVNPKFLKNAGRDCSRRSSPVYVGRVVSGMVNCNDDQGVLLGRWDNNYGDGVSPMSWIGSVDILRRWKNHGCQRVKYGQCWVFAAVACTVLRCLGIPTRVVTNYNSAHDQNSNLLIEYFRNEFGEIQGDKSEMIWNFHCWVESWMTRPDLQPGYEGWQALDPTPQEKSEGTYCCGPVPVRAIKEGDLSTKYDAPFVFAEVNADVVDWIQQDDGSVHKSINRSLIVGLKISTKSVGRDEREDITHTYKYPEGSSEEREAFTRANHLNKLAEKEETGMAMRIRVGQSMNMGSDFDVFAHITNNTAEEYVCRLLLCARTVSYNGILGPECGTKYLLNLNLEPFSEKSVPLCILYEKYRDCLTESNLIKVRALLVEPVINSYLLAERDLYLENPEIKIRILGEPKQKRKLVAEVSLQNPLPVALEGCTFTVEGAGLTEEQKTVEIPDPVEAGEEVKVRMDLLPLHMGLHKLVVNFESDKLKAVKGFRNVIIGPA
For the molecule B1, the “protein pelleted with synthetic liposomes” value is listed as “nearly all”.
